± gives the standard deviation of the averaged measurements.
Experiment: total protein half-life in vivo (active degradation + dilution); higher = more stable protein
[1] = E. coli NCM3722 delta-clpP delta-lon delta-hslV, growth: N-lim chemostat, doubling time 6 h
[2] = E. coli NCM3722 delta-hslV, growth: N-lim chemostat, doubling time 6 h
[3] = E. coli NCM3722 delta-lon, growth: N-lim chemostat, doubling time 6 h
[4] = E. coli NCM3722 delta-smpB, growth: N-lim chemostat, doubling time 6 h
[5] = wild type E. coli NCM3722, growth: C-lim chemostat, doubling time 3 h
[6] = wild type E. coli NCM3722, growth: C-lim chemostat, doubling time 6 h
[7] = wild type E. coli NCM3722, growth: C-lim chemostat, doubling time 12 h
[8] = wild type E. coli NCM3722, growth: N-lim chemostat, doubling time 6 h
[9] = wild type E. coli NCM3722, growth: N-lim chemostat, doubling time 12 h
[10] = wild type E. coli NCM3722, growth: P-lim chemostat, doubling time 6 h
[11] = wild type E. coli NCM3722, growth: P-lim chemostat, doubling time 12 h
[12] = E. coli NCM3722 delta-clpP, growth: N-lim chemostat, doubling time 6 h

| Sequence | total protein half-life in vivo [1] | total protein half-life in vivo [2] | total protein half-life in vivo [3] | total protein half-life in vivo [4] | total protein half-life in vivo [5] | total protein half-life in vivo [6] | total protein half-life in vivo [7] | total protein half-life in vivo [8] | total protein half-life in vivo [9] | total protein half-life in vivo [10] | total protein half-life in vivo [11] | total protein half-life in vivo [12] |
| --- | --- | --- | --- | --- | --- | --- | --- | --- | --- | --- | --- | --- |
| MNKNRGFTPLAVVLMLSGSLALTGCDDKQAQQGGQQMPAVGVVTVKTEPLQITTELPGRTSAYRIAEVRPQVSGIILKRNFKEGSDIEAGVSLYQIDPATYQATYDSAKGDLAKAQAAANIAQLTVNRYQKLLGTQYISKQEYDQALADAQQANAAVTAAKAAVETARINLAYTKVTSPISGRIGKSNVTEGALVQNGQATALATVQQLDPIYVDVTQSSNDFLRLKQELANGTLKQENGKAKVSLITSDGIKFPQDGTLEFSDVTVDQTTGSITLRAIFPNPDHTLLPGMFVRARLEEGLNPNAILVPQQGVTRTPRGDATVLVVGADDKVETRPIVASQAIGDKWLVTEGLKAGDRVVISGLQKVRPGVQVKAQEVTADNNQQAASGAQPEQSKS [P0AE06] | 5.95 ± 0.32 h | 6.3 ± 0.28 h | 6.62 ± 0.54 h | 5.93 ± 0.21 h | 2.921 ± 0.024 h | 5.84 ± 0.46 h | 12.1 ± 0.26 h | 6.134 ± 0.05 h | 13.33 ± 0.11 h | 5.814 ± 0.041 h | 12.5 ± 0.88 h | – |
| MNKSQLIDKIAAGADISKAAAGRALDAIIASVTESLKEGDDVALVGFGTFAVKERAARTGRNPQTGKEITIAAAKVPSFRAGKALKDAVN [P0ACF4] | 7.01 ± 0.69 h | 5.94 ± 0.61 h | 6.96 ± 0.96 h | 5.51 ± 0.24 h | 2.88 ± 0.054 h | 5.1 ± 0.35 h | 7.44 ± 0.28 h | 5.035 ± 0.04 h | 10.813 ± 0.0038 h | 4.6 ± 0.72 h | 10.8 ± 0.92 h | – |
| MNKTITALAIMMASFAANASVLPETPVPFKSGTGAIDNDTVYIGLGSAGTAWYKLDTQAKDKKWTALAAFPGGPRDQATSAFIDGNLYVFGGIGKNSEGLTQVFNDVHKYNPKTNSWVKLMSHAPMGMAGHVTFVHNGKAYVTGGVNQNIFNGYFEDLNEAGKDSTAIDKINAHYFDKKAEDYFFNKFLLSFDPSTQQWSYAGESPWYGTAGAAVVNKGDKTWLINGEAKPGLRTDAVFELDFTGNNLKWNKLAPVSSPDGVAGGFAGISNDSLIFAGGAGFKGSRENYQNGKNYAHEGLKKSYSTDIHLWHNGKWDKSGELSQGRAYGVSLPWNNSLLIIGGETAGGKAVTDSVLITVKDNKVTVQN | 5.85 ± 0.22 h | 5.99 ± 0.77 h | 6.24 ± 0.61 h | 6.27 ± 1.1 h | 3.12 ± 0.2 h | 6.33 ± 0.044 h | 12.6 ± 1.2 h | 6.32 ± 0.1 h | 11.5 ± 1.4 h | 5.97 ± 0.41 h | 13.9 ± 1.4 h | – |
| MNKTQLIDVIAEKAELSKTQAKAALESTLAAITESLKEGDAVQLVGFGTFKVNHRAERTGRNPQTGKEIKIAAANVPAFVSGKALKDAVK [P0ACF0] | 7.47 ± 0.039 h | 5.45 ± 0.31 h | 6.06 ± 0.22 h | 5.39 ± 0.12 h | 3.04 ± 0.19 h | 5.55 ± 0.72 h | 10 ± 0.23 h | 5.15 ± 0.27 h | 11.91 ± 0.1 h | 4.73 ± 0.92 h | 11.1 ± 1.5 h | 6.29 ± 0.51 h |
| MNKVVLLCRPGFEKECAAEITDKAGQREIFGFARVKENAGYVIYECYQPDDGDKLIRELPFSSLIFARQWFVVGELLQHLPPEDRITPIVGMLQGVVEKGGELRVEVADTNESKELLKFCRKFTVPLRAALRDAGVLANYETPKRPVVHVFFIAPGCCYTGYSYSNNNSPFYMGIPRLKFPADAPSRSTLKLEEAFHVFIPADEWDERLANGMWAVDLGACPGGWTYQLVKRNMWVYSVDNGPMAQSLMDTGQVTWLREDGFKFRPTRSNISWMVCDMVEKPAKVAALMAQWLVNGWCRETIFNLKLPMKKRYEEVSHNLAYIQAQLDEHGINAQIQARQLYHDREEVTVHVRRIWAAVGGRRDER [P0ADR6] | 5.236 ± 0.0068 h | 4.77 ± 0.28 h | 5.75 ± 1 h | 4.81 ± 0.15 h | 3.45 ± 0.77 h | 5.93 ± 0.44 h | 10.2 ± 0.49 h | 4.78 ± 0.28 h | 8.148 ± 0.00089 h | 5.72 ± 0.16 h | 11.6 ± 0.63 h | 4.78 ± 0.26 h |
| MNKYQAVIIGFGKAGKTLAVTLAKAGWRVALIEQSNAMYGGTCINIGCIPTKTLVHDAQQHTDFVRAIQRKNEVVNFLRNKNFHNLADMPNIDVIDGQAEFINNHSLRVHRPEGNLEIHGEKIFINTGAQTVVPPIPGITTTPGVYDSTGLLNLKELPGHLGILGGGYIGVEFASMFANFGSKVTILEAASLFLPREDRDIADNIATILRDQGVDIILNAHVERISHHENQVQVHSEHAQLAVDALLIASGRQPATASLHPENAGIAVNERGAIVVDKRLHTTADNIWAMGDVTGGLQFTYISLDDYRIVRDELLGEGKRSTDDRKNVPYSVFMTPPLSRVGMTEEQARESGADIQVVTLPVAAIPRARVMNDTRGVLKAIVDNKTQRMLGASLLCVDSHEMINIVKMVMDAGLPYSILRDQIFTHPSMSESLNDLFSLVK | 5.58 ± 0.12 h | 4.73 ± 0.26 h | 5.53 ± 0.24 h | 4.9 ± 0.99 h | 3.31 ± 0.05 h | – | 10.4 ± 1 h | 4.71 ± 0.29 h | 8.5 ± 0.62 h | 6 ± 0.4 h | 12 ± 1.2 h | 4.727 ± 0.039 h |
| MNLDDKSLFLDAMEDVQPLKRATDVHWHPTRNQRAPQRIDTLQLDNFLTTGFLDIIPLSQPLEFRREGLQHGVLDKLRSGKYPQQASLNLLRQPVEECRKMVFSFIQQALADGLRNVLIIHGKGRDDKSHANIVRSYVARWLTEFDDVQAYCTALPHHGGSGACYVALRKTAQAKQENWERHAKRSR | – | 0.92 ± 0.056 h | – | 0.889 h | 0.985 h | 1.35 h | 1.42 h | 1.06 ± 0.055 h | 1.33 ± 0.064 h | 1.28 h | 1.8 ± 0.54 h | 3.15 ± 0.09 h |
